The text below walks through data of publication PMC6925060 (Archives of toxicology, 2017).

Where a chain is given by its changes, count along the chain named.

For series [1], the target named is F-actin (rat, endogenous, 100,000 x g pellet) (rat (endogenous in RMC)) (UniProt P60711). As to the kind of experiment: co-sedimentation.
Series [2] has as its target human GST-cofilin (human) (UniProt P23528). In words: pull-down.
Series [3] deals with the molecule itself. In words: cross-linking.
Series [4] deals with the molecule itself. In words: cross-linking. This is another data set of the same source.

Chain of human GST-cofilin (human) (P23528 whole entry): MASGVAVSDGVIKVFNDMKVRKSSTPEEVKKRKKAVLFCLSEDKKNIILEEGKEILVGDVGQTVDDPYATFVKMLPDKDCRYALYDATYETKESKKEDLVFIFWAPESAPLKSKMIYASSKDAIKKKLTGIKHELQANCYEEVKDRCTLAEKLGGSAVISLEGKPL

With “disulfide-crosslinked CAP1 dimer (rat, endogenous, from Cd2+-treated cells) (from UniProt Q08163 1-474) (complex)”, the dimer:monomer ratio in the pellet, percent of that in the supernatant in series [1] is 172%.

B1: disulfide-crosslinked CAP1 dimer (rat, endogenous, from Cd2+-treated cells) (complex)
chain: MADMQNLVERLERAVGRLEAVSHTSDMHCGYGDSPSKGAVPYVQAFDSLLANPVAEYLKMSKEIGGDVQKHAEMVHTGLKLERALLVTASQCQQPAGNKLSDLLAPISEQIQEVITFREKNRGSKFFNHLSAVSESIQALGWVALAAKPGPFVKEMNDAAMFYTNRVLKEYRDVDKKHVDWVRAYLSIWTELQAYIKEFHTTGLAWSKTGPVAKELSGLPSGPSVGSGPPPPPPGPPPPPVPTSSGSDDSASRSALFAQINQGESITHALKHVSDDMKTHKNPALKAQSGPVRSGPKPFSAPKPQTSPSPKPATKKEPALLELEGKKWRVENQENVSNLVIDDTELKQVAYIYKCVNTTLQIKGKINSITVDNCKKLGLVFDDVVGIVEIINSRDVKVQVMGKVPTISINKTDGCHAYLSKNSLDCEIVSAKSSEMNVLIPTEGGDFNEFPVPEQFKTLWNGQKLVTTVTEIAG
modifications: intermolecular disulfide crosslink, DTT-sensitive; involves Cys29 (shown by mutagenesis of mouse CAP1)
Turning to B1, the dimer:monomer ratio in the pull-down, percent of that in the total lysate in series [2] amounted to 220%.

B2: His-tagged recombinant mouse CAP1 (wild type), from HEK cells (natural protein, UniProt P40124 1-474, looked up)
chain: B1 chain with V87A, V241I, P242S
On to B2, for which the binding result in series [3] is given as “binds”.

B3: adenylyl cyclase-associated protein CAP1 (rat, endogenous, monomer) (natural protein, rat (endogenous in RMC), UniProt Q08163 1-474, looked up)
chain: B1 chain
Consider B3, for which, in series [4], the “stoichiometry N” value is 2.
